# In the nanobody polyreactivity screen of Harvey et al. (2022):
# Test: yeast display, Sf9 membrane polyspecificity reagent, FACS + sequencing; frameworks hold sequencing errors
# Procedure, shortened: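 Genes from sorted yeast were amplified by colony PCR, read by MiSeq 2 × 250 sequencing and filtered on CDR length. These cells carried a synthetic nanobody library in Saccharomyces cerevisiae BJ5465 and were sorted by FACS into low and high (top ~1%) gates on anti-HA and streptavidin fluorescence. Polyreactivity is labelled according to the gate of origin.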
row,Sequence,polyreactivity (PSR sort gate)
1,QGQLVESGGGLVQAGGSLRLSCAASGITFPGYAMGWSRQAPGKERELVAVIRKSGTSTYYADSVKGRFTISRDNEKNTVYLQMNSLKPEDTAVYYCADGGPSTVDVYWGQGTQVTVSS,low polyreactivity
2,QGQLVESGGGLVQAGGSLRLSCAASGITFPYYAMGWYRQAPGKERELVADITSGGSTNYADSVKGRFTISRDNAKNTVYLQMNSLKPDDTAVYYCAADWYVIYDYWGQGTQVTVSS,low polyreactivity
3,QGQLVESGGGLVQAGGSLRLSCAASGRIFKYNAMGWYRQAPGKEMELVAVITSGGSTYYADSVKGRFTISRDNAKNTVYLQMNSLKPEDTAVYYCAKKYYIVHKFDYWGQGTQVTVSS,low polyreactivity
4,QGQLVESGGGLVQAGGSLRLSCAASGRIFPYAMGWYRQAPGKERELVAAISRIGGITYYADSVKGRFTISRDNAKNTVYLQMNSLKPEDTAVYYCNARFHPYRWTFDYWGQGTQVTVSS,high polyreactivity
5,QGQLVESGGGLVQAGGSLRLSCAASGRIFQMYTMGWYRQAPGKERELDAAITSGTSTSYADSVKGRFTISRDNAKNPFYLQMNSLKPEDTAVYYCNKGSVCYSSVFVPYESDYWGQGTQVTVSS,low polyreactivity
6,QGQLVESGGGLVQAGGSLRLSCAASGRIFYIYFMGWYRQAPGKEREFVAAISQSGGSTYYADSVKGRFTISRDNAKNTVYLQMNSLKPEDTAVYYCAADRINYQHGYGYWGHGTQVTVSS,low polyreactivity
7,QGQLVESGGGLVQAGGSLRLSCAASGRTFQYYAMGWYRQATGKERELVAAITTVGSTKYADSVKGRFTISRDNAKNTVYLQMNSVKPEDTAVYYCAAGYRTRSGHRVPYSDYSWGQGTQVTVSS,high polyreactivity
8,QGQLVESGGGLVQAGGSLRLSCAASGRTFTINAMGWYRQATGKERELHAAISSDGNTNYADSVKGRFTISRDNAKNTVYLQMNSLKPEDTAVYYCAADWVRYSYRHGSYRVYYWGQGTQVTVSS,high polyreactivity
9,QGQLVESGGGLVQAGGSLRLSCAASGRTFYRYAMGWYRQAPGNERELVASMNRGGSTYYADSVKGRFTFSRDNAKNTVYLQMNSLKPEDTAVYYCACYCYCYRGQGTQVTVSS,low polyreactivity
10,QGQLVESGGGLVQAGGSLRLSCAASGRTLVIKVMGWYRKAPGKERELVAAISFRSGNTYYADSVKGRFTISRDNAKITVYLQMNSLKPEDTAVYDCAAYTYRTSTTSSYYNWGQGTQVTVSS,high polyreactivity
11,QGQLVESGGGLVQAGGSLRLSCAASGSIFDLNAMGWYRQAPGKERELVAAISTGGGTYYADSVKGRFTISRDTAKNTVYLQMNRLKPEDTAVYYCNRVTRWTYNYWGQGTQVTVSS,high polyreactivity
12,QGQLVESGGGLVQAGGSLRLSCAASGSIFGPYVMGWYRPAPGTERELVASITSSGGSTYYADSVKGRFTISRDNAKNTVYLQMNSLKPEDTAVYYCAATRSFSGGYGYVSYDYWGQGTQVTVSS,high polyreactivity
13,QGQLVESGGGLVQAGGSLRLSCAASGSIFRSYAMGWYRQAPGKERELVASISRRGGSTYYADSVKGRFTISRDNAKNTVYLQMNSLKPEDTAVYYCAAVRYNSRVSTSPSEMYYWGQGTQVTVSS,low polyreactivity
14,QGQLVESGGGLVQAGGSLRLSCAASGSISGNYAMAWYRQAPGKERELVASIRYTGARTYYADSVKWRFTISRDNAKNTVYLQMNSLKPEDTAVYYCAADVKRDRVWGGDYWGQGTQVTVSS,low polyreactivity
15,QGQLVESGGGLVQAGGSLRLSCAASGSISTYYAMGWYRQAPGKERELVAAISSSGVRTYYADSVKGRFTIARDNAKNTVYLQMNSLKREDTAVSYCAAEVYYLYFYIMDYWGQGTQVTVSS,high polyreactivity
16,QGQLVESGGGLVQAGGSLRLSCAASGSSLPYYAMGSYRQAPGKERELVATITDGTDTYYADSVKARFTISRDNAKNTVFLQMNSLKTDDSAVYYCNAYGYVYFLHEDYWGQGTQVTVSS,low polyreactivity
17,QGQLVESGGGLVQAGGSLRLSCAASGSTFLTNTMGWYRHAPGKERELVAAITLRGGRTYYADSVKGRFTISRDNAKNTVYVQMNSLKPEDTAVYYCTARNYYYTSDRDYWGQGTQVTVSS,low polyreactivity
18,QGQLVESGGGLVQAGGSLRLSCAASGSTLVYNDMGWYRQAPGKEREFVAAISISGTSTYADSVKGRFTISRDNAKNTVYLQMNSLKPEDTAVYWGQGTQVTVSS,low polyreactivity
19,QGQLVESGGGLVQAGGSLRLSCAASGTTFTKYAMGWYRPAPGKERELVATISQSSGRTYYADSVKRRFTISRDNAKNTVYLQMNTLKPEDTAVYYCAARYGYAVYYYGTPVRRYYYWGQGTQVTVSS,high polyreactivity
20,QGQLVESGGGLVQAGGSLRLSCAASVRTFYKYAMGWYRQAPGKERELVATITSGGSTNYADSVKGRFTISRDNAKNTVYLQMNSLKPEDTAVYYCAARGHIYKIRDPYWTHDYWGQGTQVTVSS,low polyreactivity
21,QGQLVESGGGLVQAGGSLRLTCPPSGFTFRTNAMGWYRQAPGKERELVAAISYSGGSTYYADSVKGRFTISRDNAKNTVYFQMNSLKPEDTAVSYCAARAAGSQHDYWGQGSQVTVSS,high polyreactivity
22,QGQLVESGGGLVQAGGSLSLSCAASGSIFQGYAMGWYRQAPGNEWEFVAAISESDGSTYYADSVKGRCTISRDNAKNTVYLQMNSLKPEDTAVYYCAADKQAYVTDDYWGQGTQVTVSS,high polyreactivity

row,Sequence,polyreactivity (PSR sort gate)
1,QGQLVESGGGLVQAGVSLRLSCAASGSIFGFYGMGWYRQAPGKERELVAAISYRGGNTYYADSVKGRFTSSRDNAKNTVFLQKNSLKPEDTAVYYCNSMWKHGAYRGAYGYWGQGTQVTVSS,high polyreactivity
2,QGQLVESGGGVVQAGGSLRLSCAASGRIFYRNAMGWYRQAPGKVRELVAAINWSGGSTYYADSVKGRFTISRDNAKNTVYLQMNSLKPEDTAVYYCAARFVRYPSKYDYWGQGTQVTVSS,high polyreactivity
3,QGQLVESWGGLVQAGGSHRLSCAASGRIFVYYAMGWYRQAPGKERELVAGMTGGGNTYYAYSVKVLFTISRDNAKNTGYLQKNSLKPEDTAVYYCAADPIRYRSRHKYGYWGQGTQVTVSS,low polyreactivity
4,QGQLVVSGGGLVQAGGSLRLSCAASGSILTRNAMGWYRQAPGKEMELVAAITGSGGRTYYADSVKGRFTISRDNAKKTFYLQMKSLKPEDTAVYYCATRYGREDYWGQGTQVNVSS,high polyreactivity
5,QGQRVESGGGLVQAGASLRLSCAASGFIFWEYAMGWSRQAPGKERELVAAISDSGGDTYYADSVKGRFTISRDNAKNTVYLEMHSLKPEDSAVYFCAADVELWVFRGQQYDYWGQGTQVTVSS,low polyreactivity
6,QGQRVESGGGLVQAGGSLRISCAASGRTVGRYVMGWYRQEPGKERELVARIRGSTTSTYYADSVKGRFTISRDNAKNTVYLQMNSLKAEDTAVYYCAASYSPFASSYSYDYWGQGTQVTVSS,high polyreactivity
7,QGQRVESGGGLVQAGGSLRLTCAPSGRTFTGYAMGWYRQATGKARELVAGINWSTGSTYYADSVKGRFTISRDNAKNTVYLQMNSLKPEDTAVYYCAAGYYYYGNGRIVQYEYWGQGTQVTVSS,high polyreactivity
8,QHQHVESGGGLDQAGGSLRLSCAASGSTFQIYAMGWYRQAPGKERELVAAIDFSGGSTYYADSVKGRFTISRDNAKYTVYLQMNSLKQEDTAVYYCAADLALYSHFGEYEYWGQGTQVTVSS,low polyreactivity
9,QHQLVESGGGLVQAGGSLRLSCAASGRTFHRNAKGWYRQAPWQERELVAAITGSGGSTYYADSVKGRFTISRDNAKNTVYLQMYSLKPEDTAVYYCATYSYPERTGGQRTHYYWGQGTQVTVSS,high polyreactivity
10,QIQLVESGGGFVQAGGSLRLSCAASGFTFHYYAMGWYSQAPGKERELGAAISWSSGRTYYADSVKGRFTISRDNAQNTVYLQMNSLKPEDTAVYSCAASSYNRGDYWGQGTQVTVSS,low polyreactivity
11,QLHLVESGGGLVQAGGSLRLSCAASGLTFDQYAMGWYRQAPGKERELVAAISGSDSTYYADSVKGRFTISRDNAKNTVYLQMNSLKPEDTAVYYCAASGDYVNIITGERFDARLYDYWGQGTQVTVSS,low polyreactivity
12,QLHLVESGGGLVQAGGSLRLSCAASVSIFNIYAMGWYRQAPGKERELVATITGIADSTYYADSVKGRFTISRDNAKNTVYLQMNSLKPEDTAVYYCAADKYVAEYDYWGQGTQVTVSS,low polyreactivity
13,QLKLVESGGGLVQAGASLRLSCAASGSIFYGYTMGWYRQAPGKERELVAGISTYYADSVKGRFTISRDNAKNTVYLQMNSLKPEDTEVYYCAADYSSTTSEYDYWGQGTQVTVSS,low polyreactivity
14,QLQHVESGGCLDQAGGSLRLSCAASGGIIPYRGWYRQAPGKQRELVASITSSGGSTYYADSVKGRFTISRDNAKNTVYLQMNSLKPEDTAVFYCAADPDFYKSVQYDYWGQGTQVTVSS,low polyreactivity
15,QLQHVESGGGLVQAGGRLRLSCAASGFTFYYYAMGWYRPEPGKERELVAAISSTGGSTYYADSVKGRFTISRDNAKNTVYLQMNSMKPEDTAVYYCNAACYRYPGDYDYWGQGTQVTVSS,high polyreactivity
16,QLQIVESGGGLVQAGGSLRLSCAASGRIFSYNAMGWYIQAPGKARELVAAITFSGGGTYYADSVKGRFTISRDNAKNTVYLQMNSLNPEYTAVYYCNKVSYGYSTYGYWGQCTQVTVSS,low polyreactivity
17,QLQIVESGGGLVQAGGSLRLSCAASGSTFSYNAMGWYRQAPRKQRELVASISTSGGSTYYADSVKGRFTISRDNANNTVYLEMNSLKPEDTAVYYCNAPTSDIYSDFDSWGQGTQVTVSS,low polyreactivity
18,QLQLAESGGGLVQAGGSLRLSCAASGSTFEINAMGWYRQAPWKERELVAAISKRGGNTYYADSVKGRFTISRDNAKNTVYLQMNSLKPEVTAVYYCSADSDSHYFFYVRWVGERYEYWGQGTQVTVSS,high polyreactivity
19,QLQLEESAGGLVQAGGSLRLSCAASGSIFSDNAMGWYRQAPGKERELVASINSGGSTNYADSVKGRFTISRDNAKNTVYLQMNSLKPEYTAVYYFNKEDEVVYPGYPNGGMDYWGQGTQVTVSS,low polyreactivity
20,QLQLEESGGGLVQAGGSLRLSCAASGRTFRYYSMGWYRHAPGKEREMVAAISSSGDRTYYADSVKGRFTISRDNATNTVYIQMNSLKPEDTAVYYCANVPYYSRPHDYWGQGTQVTVSS,high polyreactivity
21,QLQLEESGGGLVQAGGSLRLSCAASGSIFDDYAMGWYRQAPGKERELVAAITSGGSTYYADSVKGRFTISRDNAKNTVYLQLNRLKPEDTAVYYRATRYHWSSSFAPVGAYGYWGQGTQVTVSS,low polyreactivity
